Columns and labels:
olivetolic acid [1] = test: MPT fusions with GPS1.1 vs unfused MPTs, OA feed (Example 8, Table 9); assay type: cell-based, Yarrowia; conditions: 2 mM olivetolic acid, 48 h quench; for CBGA / FCBGA: 2% glucose, strain sCL-SE-0128; for CBGA/FCBGA: product ratio
Protocol: (§1) As described below, plasmids pCL-SE-0406, pCL-SE-0664, pCL-SE-0663, pCL-SE-0662, pCL-SE-0380 (MPT4), pCL-SE-0337.MPT21, pCL-SE-0337.MPT26, and pCL-SE-0337.MPT31 were transformed into strain sCL-SE-0128. Multiple colonies per transformation were precultured for 48 h in YNB containing glucose (2%), casamino acids (0.5%), and MES (100 mM pH 6.5). Pre-culture was used to inoculate assay medium comprised of YNB containing glucose (2%), casamino acids (0.5%), MES (100 mM pH 6.5), and olivetolic acid (2 mM). Cultures were quenched with equal volume of ethanol after 48 h total growth and assayed for CBGA and FCBGA. Averages and standard deviations were calculated from replicates.
(§2) Overnight YPD (10 g/L yeast extract, 20 g/L peptone, 2% dextrose) cultures were inoculated from glycerol stocks of the appropriate strain and grown at 30° C. with 250 rpm shaking. Once cultures had reached an OD600 of 4-6, cultures were centrifuged at 500×g for 5 min, supernatants were discarded, and cell pellets were resuspended in equal volume of water. Resuspended cells were centrifuged at 500×g for 5 min, supernatants were discarded, and cells were resuspended in a volume (75 μL×OD×Vculture) of transformation cocktail (45% PEG-400, 0.1 M LiAc, 0.1 M DTT, and 25 ug/100 μL SS Salmon Sperm DNA). For each transformation, >1 μg of plasmid DNA was added to 55 μL cells/transformation cocktail and vortexed for 2 s. Transformations were incubated at 39° C. for 1 h with 250 rpm shaking. Transformations were resuspended in 750 μL YPD with 1 M sorbitol and recovered at 30° C. overnight with 250 rpm shaking. The next day, transformations were centrifuged at 500×g for 5 min, supernatants were discarded, and cell pellets were resuspended in 750 YPD. Resuspended transformations were plated on YPD with appropriate selection or YNBD (6.71 g/L yeast nitrogen base+nitrogen, 0.5% casamino acids, 2% dextrose) agar plates and grown at 30° C. for 2 days. Individual colonies were patched onto YPD plates with appropriate selection or YNBD plates and grown at 30° C. overnight. Patches were used to inoculate 0.5 mL YPD with appropriate selection or YNBD precultures in 96 w blocks and grown at 30° C. for 24-48 h with 1000 rpm shaking. For assays, 0.5 mL YPD with appropriate selection or YNBD cultures containing substrate were inoculated with 2 μL from precultures and grown at 30° C. for 2-4 days with 1000 rpm shaking with 2% glucose added every 24 h. Assay cultures were quenched by addition of 0.5 mL ethanol with 0.2% formic acid and 0.5 mg/mL pentyl-benzoic acid. Precipitates were pelleted by centrifuging at 4600×g for 10 min and then 200 μL was transferred to fresh plates, sealed, and analyzed via HPLC.
(§3) All samples were quenched with equal volume of EtOH containing 0.2 mg/mL internal standard (3,5-Diisopropyl-2-hydroxybenzoic acid CAS #2215-21-6) centrifuged, and clarified solutions were analyzed by HPLC-MS
(§4) • Column: 2.1×50 mm COSMOCORE PBr (Nacalai USA, Inc.) • Mobile Phase: A; 0.1% formic acid in water, B; 0.1% formic acid in acetonitrile • Flow: 0.45 mL/min • Temp: % 50 Celsius • Gradient: 20%B at 0 min, 70%B at 2.3 min, 89% B at 4.2 min, 20% B at 4.3 min, 20%B at 6 min

olivetolic acid [2] = test: GPS-APT fusions, OA feed in vivo assay (Example 11); assay type: cell-based, Yarrowia; conditions: for CBGA / FCBGA: olivetolic acid feed as in Example 8, 48 h quench, strain sCL-SE-0128; for CBGA/FCBG: olivetolic acid feed, 48 h quench, product ratio
Protocol: as §1
Soluble prenyl transferase APT73.77 was fused with GPS1.1 at the N- or C-terminus with different linkers creating the plasmids shown in Table 14. These fusion proteins were expressed and screened as described in Example 8 (olivetolic acid feed)
as §2, §3, §4

B1: GPS1.1-F11-MPT26: fusion protein, SEQ ID NO: 26 (protein)
chain: MSKAKFESVFPRISEELVQLLRDEGLPQDAVQWFSDSLQYNCVGGKLNRGLSVVDTYQLLTGKKELDDEEYYRLALLGWLIELLQAFWLVSDDIMDESKTRRGQPCWYLKPKVGMIAIWDAFMLESGIYILLKKHFRQEKYYIDLVELFHDISFKTELGQLVDLLTAPEDEVDLNRFSLDKHSFIVRYKTAYYSFYLPVVLAMYVAGITNPKDLQQAMDVLIPLGEYFQVQDDYLDNFGDPEFIGKIGTDIQDNKCSWLVNKALQKATPEQRQILEDNYGVKDKSKELVIKKLYDDMKIEQDYLDYEEEVVGDIKKKIEQVDESRGFKKEVLNAFLAKIYKRQKGGAEAAAKEAAAKAGGSGGGSGGGGSGGSGGGGSGGGGSMSDNSIATKILNFGHTCWKLQRPYVVKGMISIACGLFGKELLHNTNLISWGLMWKAFFALVPILSFNFFAAIMNQIYDVDIDRINKPDLPLVSGEMSIETAWILSIIVALTGLIVTIKLKSAPLFVFIYIFGIFAGFAYSVPPIRWKQNPSTNFLITISSHVGLAFTSYSATTSALGLPFVWRPAFSFIIAFMTVMGMTIAFAKDISDIEGDAKYGVSTVATKLGARNMTFVVSGVLLLNYVAAILAGIIWPQAFNSNVMLLSHAILAFWLILQTRDFALTNYDPEAGRRFFEFIWLLYYAEYFVYVFI
modifications: GPS1.1-F11-MPT26, geranyl diphosphate synthase, recombinant membrane-bound prenyltransferase fusion protein
- CBGA (olivetolic acid [1]): 98 ± 8 µM
- FCBGA (olivetolic acid [1]): 21 ± 2 µM
- CBGA/FCBGA (olivetolic acid [1]): 4.6

B2: GPS1.1-F16-APT73.77: fusion protein, SEQ ID NO: 63 (protein)
chain: MSKAKFESVFPRISEELVQLLRDEGLPQDAVQWFSDSLQYNCVGGKLNRGLSVVDTYQLLTGKKELDDEEYYRLALLGWLIELLQAFWLVSDDIMDESKTRRGQPCWYLKPKVGMIAIWDAFMLESGIYILLKKHFRQEKYYIDLVELFHDISFKTELGQLVDLLTAPEDEVDLNRFSLDKHSFIVRYKTAYYSFYLPVVLAMYVAGITNPKDLQQAMDVLIPLGEYFQVQDDYLDNFGDPEFIGKIGTDIQDNKCSWLVNKALQKATPEQRQILEDNYGVKDKSKELVIKKLYDDMKIEQDYLDYEEEVVGDIKKKIEQVDESRGFKKEVLNAFLAKIYKRQKGGGSGGGSGGGSGGGGSMDEVYAAVEQTSRLLDVPCSPDRFEPVWKAFGDQLPDSHLVFSMAAGEAHRGELDFDFSLRPEGADPYTTALEHGFIEPTDHPVGSVLAEVGKRFAIASYGVEYGVVGGFKKSYAFFPLDDFPPLAQFAEVPSVPPCLAGHVETLTRLGFDDKVSIIGVNYRKNTLNVYLAASAVDTGDKLALLRAFGYPEPDARVRQFIERSFRLYPTFNWDSSAAERICFAVHTQQPGELPAPHDEPTEAFARQVPHVYEGGREFVSGVALAPSGASYYKLAALYQKARRCLD
modifications: GPS1.1-F16-APT73.77, geranyl diphosphate synthase, mutant soluble aromatic prenyltransferase fusion protein
- CBGA (olivetolic acid [2]): 421 ± 44 µM
- FCBGA (olivetolic acid [2]): 113 ± 12 µM
- CBGA/FCBG (olivetolic acid [2]): 3.7

B3: APT73.77-F17-GPS1.1: fusion protein, SEQ ID NO: 64 (protein)
chain: MDEVYAAVEQTSRLLDVPCSPDRFEPVWKAFGDQLPDSHLVFSMAAGEAHRGELDFDFSLRPEGADPYTTALEHGFIEPTDHPVGSVLAEVGKRFAIASYGVEYGVVGGFKKSYAFFPLDDFPPLAQFAEVPSVPPCLAGHVETLTRLGFDDKVSIIGVNYRKNTLNVYLAASAVDTGDKLALLRAFGYPEPDARVRQFIERSFRLYPTFNWDSSAAERICFAVHTQQPGELPAPHDEPTEAFARQVPHVYEGGREFVSGVALAPSGASYYKLAALYQKARRCLDGGGGSMSKAKFESVFPRISEELVQLLRDEGLPQDAVQWFSDSLQYNCVGGKLNRGLSVVDTYQLLTGKKELDDEEYYRLALLGWLIELLQAFWLVSDDIMDESKTRRGQPCWYLKPKVGMIAIWDAFMLESGIYILLKKHFRQEKYYIDLVELFHDISFKTELGQLVDLLTAPEDEVDLNRFSLDKHSFIVRYKTAYYSFYLPVVLAMYVAGITNPKDLQQAMDVLIPLGEYFQVQDDYLDNFGDPEFIGKIGTDIQDNKCSWLVNKALQKATPEQRQILEDNYGVKDKSKELVIKKLYDDMKIEQDYLDYEEEVVGDIKKKIEQVDESRGFKKEVLNAFLAKIYKRQK
modifications: APT73.77-F17-GPS1.1, mutant soluble aromatic prenyltransferase, geranyl diphosphate synthase fusion protein
- CBGA (olivetolic acid [2]): 242 ± 36 µM
- FCBGA (olivetolic acid [2]): 73 ± 9 µM
- CBGA/FCBG (olivetolic acid [2]): 3.3

B4: GPS1.1-F18-APT73.77: fusion protein, SEQ ID NO: 65 (protein)
chain: MSKAKFESVFPRISEELVQLLRDEGLPQDAVQWFSDSLQYNCVGGKLNRGLSVVDTYQLLTGKKELDDEEYYRLALLGWLIELLQAFWLVSDDIMDESKTRRGQPCWYLKPKVGMIAIWDAFMLESGIYILLKKHFRQEKYYIDLVELFHDISFKTELGQLVDLLTAPEDEVDLNRFSLDKHSFIVRYKTAYYSFYLPVVLAMYVAGITNPKDLQQAMDVLIPLGEYFQVQDDYLDNFGDPEFIGKIGTDIQDNKCSWLVNKALQKATPEQRQILEDNYGVKDKSKELVIKKLYDDMKIEQDYLDYEEEVVGDIKKKIEQVDESRGFKKEVLNAFLAKIYKRQKGGGGSLEDPAVWEAGKVVAKGVGTADITATTSNGLIASSEEADNAATSMDEVYAAVEQTSRLLDVPCSPDRFEPVWKAFGDQLPDSHLVFSMAAGEAHRGELDFDFSLRPEGADPYTTALEHGFIEPTDHPVGSVLAEVGKRFAIASYGVEYGVVGGFKKSYAFFPLDDFPPLAQFAEVPSVPPCLAGHVETLTRLGFDDKVSIIGVNYRKNTLNVYLAASAVDTGDKLALLRAFGYPEPDARVRQFIERSFRLYPTFNWDSSAAERICFAVHTQQPGELPAPHDEPTEAFARQVPHVYEGGREFVSGVALAPSGASYYKLAALYQKARRCLD
modifications: GPS1.1-F18-APT73.77, geranyl diphosphate synthase, mutant soluble aromatic prenyltransferase fusion protein
- CBGA (olivetolic acid [2]): 468 ± 24 µM
- FCBGA (olivetolic acid [2]): 121 ± 2 µM
- CBGA/FCBG (olivetolic acid [2]): 3.9

B5: GPS1.1-F11-MPT31: fusion protein, SEQ ID NO: 27 (protein)
chain: MSKAKFESVFPRISEELVQLLRDEGLPQDAVQWFSDSLQYNCVGGKLNRGLSVVDTYQLLTGKKELDDEEYYRLALLGWLIELLQAFWLVSDDIMDESKTRRGQPCWYLKPKVGMIAIWDAFMLESGIYILLKKHFRQEKYYIDLVELFHDISFKTELGQLVDLLTAPEDEVDLNRFSLDKHSFIVRYKTAYYSFYLPVVLAMYVAGITNPKDLQQAMDVLIPLGEYFQVQDDYLDNFGDPEFIGKIGTDIQDNKCSWLVNKALQKATPEQRQILEDNYGVKDKSKELVIKKLYDDMKIEQDYLDYEEEVVGDIKKKIEQVDESRGFKKEVLNAFLAKIYKRQKGGAEAAAKEAAAKAGGSGGGSGGGGSGGSGGGGSGGGGSMSDNSIATKILNFGHACWKLQRPYVVKGMISIACGLFGRELLHNTNLISWGLMWKAFFALVPILSFNFFAAIMNQIYDLHIDRINKPDLPLASGEISVNTAWIMSIIVALTGLIVTIKLKSAPLFVFIYIFGIFAGFAYSVPPIRWKQNPSTNFLITISSHVGLAFTSYYASRAALGLPFELRPSFTFLLAFMTVMGMTIAFAKDISDIEGDAKYGVSTVATKLGARNMTFVVSGVLLLNYLVSISIGIIWPQVFKSNIMILSHAILAFWLILQTRDFALTNYDPEAGRRFFEFIWLLYYAEYLVYVFI
modifications: GPS1.1-F11-MPT31, geranyl diphosphate synthase, recombinant membrane-bound prenyltransferase fusion protein
- CBGA (olivetolic acid [1]): 53 ± 4 µM
- FCBGA (olivetolic acid [1]): 5 ± 0 µM
- CBGA/FCBGA (olivetolic acid [1]): 10.8

— patent US20240228986A1, “ENGINEERED CELLS, ENZYMES, AND METHODS FOR PRODUCING CANNABINOIDS” (priority 2021, published 2024)
